# Molecular target: RARb:RXRa (Homo sapiens, UniProt P10826;P19793 full;full)
# Test: no ligand; PBM; 270 nM : 90 nM RXRa; PBS pH 7.4, 2% milk, 0.02% Triton X-100, 1 mM DTT, BSA, 0.4 mg/ml salmon testes DNA
# Settings: tags: His kept;His cleaved; copies: 1;1; label: surface-attached array probe
# Summary of the method: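 Binding buffer was PBS pH 7.4 with 2% milk, 0.02% Triton X-100, 1 mM DTT, 0.2 mg/mL BSA and 0.4 mg/ml salmon testes DNA. In it, ligand-free nuclear receptor dimers were incubated 1 h on custom Agilent 4×180K protein-binding microarrays carrying double-stranded probes. Antibodies against each partner (one per run) detected binding, and z-scores were calculated against random background probes after regression normalization of scanned fluorescence.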
# RARb:RXRa, sequence (P10826 whole entry, chain 1 of 2): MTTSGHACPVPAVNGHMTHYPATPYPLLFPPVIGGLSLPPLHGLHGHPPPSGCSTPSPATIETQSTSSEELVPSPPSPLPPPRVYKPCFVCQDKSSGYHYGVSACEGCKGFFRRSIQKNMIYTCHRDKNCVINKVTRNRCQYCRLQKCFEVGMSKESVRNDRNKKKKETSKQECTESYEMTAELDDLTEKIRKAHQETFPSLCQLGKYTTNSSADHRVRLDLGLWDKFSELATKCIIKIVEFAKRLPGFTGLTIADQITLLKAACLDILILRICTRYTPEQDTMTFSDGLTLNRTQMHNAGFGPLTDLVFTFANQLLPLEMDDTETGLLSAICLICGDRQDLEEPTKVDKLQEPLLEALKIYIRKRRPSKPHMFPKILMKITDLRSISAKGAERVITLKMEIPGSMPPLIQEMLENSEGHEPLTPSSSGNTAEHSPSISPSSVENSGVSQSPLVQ
# RARb:RXRa, sequence (P19793 whole entry, chain 2 of 2): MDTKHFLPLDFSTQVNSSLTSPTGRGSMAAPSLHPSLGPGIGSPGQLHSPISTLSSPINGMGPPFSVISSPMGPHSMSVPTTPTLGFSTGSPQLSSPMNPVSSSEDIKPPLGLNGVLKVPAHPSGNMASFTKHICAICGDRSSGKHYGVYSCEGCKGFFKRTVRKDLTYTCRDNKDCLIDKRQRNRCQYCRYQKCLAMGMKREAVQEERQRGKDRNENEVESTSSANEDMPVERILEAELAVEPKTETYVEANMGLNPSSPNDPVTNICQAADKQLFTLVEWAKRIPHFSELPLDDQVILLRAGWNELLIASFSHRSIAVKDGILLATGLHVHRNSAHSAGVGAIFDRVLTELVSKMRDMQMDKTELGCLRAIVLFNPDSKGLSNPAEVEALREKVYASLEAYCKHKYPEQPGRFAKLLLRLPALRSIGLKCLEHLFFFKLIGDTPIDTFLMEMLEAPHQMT
row,Binder,binding signal
1,NRC3_wobSeed69_DR2_A7C_o1 (dsDNA) DNA 1: GCAGTCCAAGTTCACTAGGTAACGTAAGATTCAGCTGCGATTGACAGCGTAGAATGAAGG DNA 2: CCTTCATTCTACGCTGTCAATCGCAGCTGAATCTTACGTTACCTAGTGAACTTGGACTGC,3.03 PBM z-score against 500 random probes
2,NRC3_wobSeed69_DR2_A8T_o1 (dsDNA) DNA 1: GCAGTCATAGTTCACTAGGTAACGTAAGATTCAGCTGCGATTGACAGCGTAGAATGAAGG DNA 2: CCTTCATTCTACGCTGTCAATCGCAGCTGAATCTTACGTTACCTAGTGAACTATGACTGC,3.02 PBM z-score against 500 random probes
3,NRC3_wobSeed46_DR1_A5T_o1 (dsDNA) DNA 1: GCTTTCCAAGGTGAAAGGTCGTTGATGCACGCCTTGGCGATTGACAGCGTAGAATGAAGG DNA 2: CCTTCATTCTACGCTGTCAATCGCCAAGGCGTGCATCAACGACCTTTCACCTTGGAAAGC,3.06 PBM z-score against 500 random probes
4,NRC3_wobSeed46_DR1_T26A_o1 (dsDNA) DNA 1: GCTTACCAAGGTGAAAGGTCGTTGAAGCACGCCTTGGCGATTGACAGCGTAGAATGAAGG DNA 2: CCTTCATTCTACGCTGTCAATCGCCAAGGCGTGCTTCAACGACCTTTCACCTTGGTAAGC,3.02 PBM z-score against 500 random probes
5,NRC3_wobSeed46_DR1_T26G_o1 (dsDNA) DNA 1: GCTTACCAAGGTGAAAGGTCGTTGAGGCACGCCTTGGCGATTGACAGCGTAGAATGAAGG DNA 2: CCTTCATTCTACGCTGTCAATCGCCAAGGCGTGCCTCAACGACCTTTCACCTTGGTAAGC,3.01 PBM z-score against 500 random probes
6,NRC3_wobSeed46_DR1_C7G_o1 (dsDNA) DNA 1: GCTTACGAAGGTGAAAGGTCGTTGATGCACGCCTTGGCGATTGACAGCGTAGAATGAAGG DNA 2: CCTTCATTCTACGCTGTCAATCGCCAAGGCGTGCATCAACGACCTTTCACCTTCGTAAGC,3.05 PBM z-score against 500 random probes
7,NRC3_wobSeed114_DR4_T12A_o1 (dsDNA) DNA 1: GCAATACAGGGACATCGTAGGCCAGAGTACGCACAGGCGATTGACAGCGTAGAATGAAGG DNA 2: CCTTCATTCTACGCTGTCAATCGCCTGTGCGTACTCTGGCCTACGATGTCCCTGTATTGC,0.47 PBM z-score against 500 random probes
8,NRC3_wobSeed136_DR5_A14C_o1 (dsDNA) DNA 1: GCTAGCCTAGGTCCTTCAGGGGCCAGTATAGAAAGCGCGATTGACAGCGTAGAATGAAGG DNA 2: CCTTCATTCTACGCTGTCAATCGCGCTTTCTATACTGGCCCCTGAAGGACCTAGGCTAGC,0.43 PBM z-score against 500 random probes
9,NRC3_wobSeed51_DR2_G25T_o1 (dsDNA) DNA 1: GCCCTCGGAGGACAGAAGGTCAGATCTGTCCGCTTTGCGATTGACAGCGTAGAATGAAGG DNA 2: CCTTCATTCTACGCTGTCAATCGCAAAGCGGACAGATCTGACCTTCTGTCCTCCGAGGGC,3.07 PBM z-score against 500 random probes
10,NRC3_wobSeed5_DR0_G9C_o1 (dsDNA) DNA 1: GCCCTTACCGGTCAAGGTTATAGCACGGGTGGTACGGCGATTGACAGCGTAGAATGAAGG DNA 2: CCTTCATTCTACGCTGTCAATCGCCGTACCACCCGTGCTATAACCTTGACCGGTAAGGGC,3.08 PBM z-score against 500 random probes
11,NRC3_wobSeed72_DR2_G5A_o1 (dsDNA) DNA 1: GCTCAAGTAGGTTACGGGGGCATTCAGGGATGAAGAGCGATTGACAGCGTAGAATGAAGG DNA 2: CCTTCATTCTACGCTGTCAATCGCTCTTCATCCCTGAATGCCCCCGTAACCTACTTGAGC,3.05 PBM z-score against 500 random probes
12,NRC3_wobSeed65_DR2_A5T_o1 (dsDNA) DNA 1: GCATTTGTAGGTTATCGGGTCATTCAGTTTGCGCATGCGATTGACAGCGTAGAATGAAGG DNA 2: CCTTCATTCTACGCTGTCAATCGCATGCGCAAACTGAATGACCCGATAACCTACAAATGC,3 PBM z-score against 500 random probes
13,NRC3_wobSeed86_DR3_T17A_o1 (dsDNA) DNA 1: GCGCTGCTAGGTCAGGATGGTCAGCTAACGGGTACGGCGATTGACAGCGTAGAATGAAGG DNA 2: CCTTCATTCTACGCTGTCAATCGCCGTACCCGTTAGCTGACCATCCTGACCTAGCAGCGC,3.06 PBM z-score against 500 random probes
14,NRC3_wobSeed86_DR3_A23G_o1 (dsDNA) DNA 1: GCGCTGCTAGGTCAGGTTGGTCGGCTAACGGGTACGGCGATTGACAGCGTAGAATGAAGG DNA 2: CCTTCATTCTACGCTGTCAATCGCCGTACCCGTTAGCCGACCAACCTGACCTAGCAGCGC,3.01 PBM z-score against 500 random probes
15,NRC3_wobSeed86_DR3_A23T_o1 (dsDNA) DNA 1: GCGCTGCTAGGTCAGGTTGGTCTGCTAACGGGTACGGCGATTGACAGCGTAGAATGAAGG DNA 2: CCTTCATTCTACGCTGTCAATCGCCGTACCCGTTAGCAGACCAACCTGACCTAGCAGCGC,3.05 PBM z-score against 500 random probes
16,NRC3_wobSeed86_DR3_G24A_o1 (dsDNA) DNA 1: GCGCTGCTAGGTCAGGTTGGTCAACTAACGGGTACGGCGATTGACAGCGTAGAATGAAGG DNA 2: CCTTCATTCTACGCTGTCAATCGCCGTACCCGTTAGTTGACCAACCTGACCTAGCAGCGC,3.06 PBM z-score against 500 random probes
17,NRC3_wobSeed124_DR5_T5G_o1 (dsDNA) DNA 1: GCCCGACTGGGCCATTCAGAGGTCATTGATCATATGGCGATTGACAGCGTAGAATGAAGG DNA 2: CCTTCATTCTACGCTGTCAATCGCCATATGATCAATGACCTCTGAATGGCCCAGTCGGGC,3.03 PBM z-score against 500 random probes

row,Binder,binding signal
1,NRC3_wobSeed124_DR5_T23A_o1 (dsDNA) DNA 1: GCCCTACTGGGCCATTCAGAGGACATTGATCATATGGCGATTGACAGCGTAGAATGAAGG DNA 2: CCTTCATTCTACGCTGTCAATCGCCATATGATCAATGTCCTCTGAATGGCCCAGTAGGGC,0.46 PBM z-score against 500 random probes
2,NRC3_wobSeed98_DR4_C13A_o1 (dsDNA) DNA 1: GCACTAGTTGGTAAGCTGAGGTCACACACAATTCGGGCGATTGACAGCGTAGAATGAAGG DNA 2: CCTTCATTCTACGCTGTCAATCGCCCGAATTGTGTGTGACCTCAGCTTACCAACTAGTGC,3.06 PBM z-score against 500 random probes
3,NRC3_wobSeed98_DR4_G11C_o1 (dsDNA) DNA 1: GCACTAGTTGCTCAGCTGAGGTCACACACAATTCGGGCGATTGACAGCGTAGAATGAAGG DNA 2: CCTTCATTCTACGCTGTCAATCGCCCGAATTGTGTGTGACCTCAGCTGAGCAACTAGTGC,3.01 PBM z-score against 500 random probes
4,NRC3_wobSeed89_DR3_T13A_o1 (dsDNA) DNA 1: GCCTATGTAGGTAAAGGGGGTCATTCAGTTTGAAAGGCGATTGACAGCGTAGAATGAAGG DNA 2: CCTTCATTCTACGCTGTCAATCGCCTTTCAAACTGAATGACCCCCTTTACCTACATAGGC,3.02 PBM z-score against 500 random probes
5,NRC3_wobSeed30_DR1_G17A_o1 (dsDNA) DNA 1: GCACTAGCAGGCCAAGAGTCACTCAAGATTAGTCCGGCGATTGACAGCGTAGAATGAAGG DNA 2: CCTTCATTCTACGCTGTCAATCGCCGGACTAATCTTGAGTGACTCTTGGCCTGCTAGTGC,0.46 PBM z-score against 500 random probes
6,NRC3_wobSeed106_DR4_G25C_o1 (dsDNA) DNA 1: GCCTCGAAAGGTCGGTTGAGGTGACTATACGGATAAGCGATTGACAGCGTAGAATGAAGG DNA 2: CCTTCATTCTACGCTGTCAATCGCTTATCCGTATAGTCACCTCAACCGACCTTTCGAGGC,3.02 PBM z-score against 500 random probes
7,NRC3_wobSeed90_DR3_A8C_o1 (dsDNA) DNA 1: GCCATACCGGGTCAGCTAGGCCAGAGTAGGGACGGCGCGATTGACAGCGTAGAATGAAGG DNA 2: CCTTCATTCTACGCTGTCAATCGCGCCGTCCCTACTCTGGCCTAGCTGACCCGGTATGGC,3.04 PBM z-score against 500 random probes
8,NRC3_wobSeed41_DR1_G11C_o1 (dsDNA) DNA 1: GCATATGTAGCTTAAGGGTCATTCAGGTTGGTTCGCGCGATTGACAGCGTAGAATGAAGG DNA 2: CCTTCATTCTACGCTGTCAATCGCGCGAACCAACCTGAATGACCCTTAAGCTACATATGC,3.04 PBM z-score against 500 random probes
9,NRC3_wobSeed10_DR0_A7G_o1 (dsDNA) DNA 1: GCATCGGAAGGTCGAGGTGAGTATAGAGAAAGGGAAGCGATTGACAGCGTAGAATGAAGG DNA 2: CCTTCATTCTACGCTGTCAATCGCTTCCCTTTCTCTATACTCACCTCGACCTTCCGATGC,3 PBM z-score against 500 random probes
10,NRC3_wobSeed9_DR0_T22C_o1 (dsDNA) DNA 1: GCATCTCTAGGTAAAGTTCAGCGAAAGATCGATAGAGCGATTGACAGCGTAGAATGAAGG DNA 2: CCTTCATTCTACGCTGTCAATCGCTCTATCGATCTTTCGCTGAACTTTACCTAGAGATGC,3.07 PBM z-score against 500 random probes
11,NRC3_wobSeed75_DR3_C6A_o1 (dsDNA) DNA 1: GCTCTAGGAGGACACGAAGGTCAGAGCTTTCCAGAGGCGATTGACAGCGTAGAATGAAGG DNA 2: CCTTCATTCTACGCTGTCAATCGCCTCTGGAAAGCTCTGACCTTCGTGTCCTCCTAGAGC,3.07 PBM z-score against 500 random probes
12,NRC3_wobSeed4_DR0_A24C_o1 (dsDNA) DNA 1: GCCCTACTGGGCCAAGGTCATTGCTCAGTCAAAGCAGCGATTGACAGCGTAGAATGAAGG DNA 2: CCTTCATTCTACGCTGTCAATCGCTGCTTTGACTGAGCAATGACCTTGGCCCAGTAGGGC,3.07 PBM z-score against 500 random probes
13,NRC3_wobSeed4_DR0_C13G_o1 (dsDNA) DNA 1: GCCCTACTGGGCGAAGGTCATTGATCAGTCAAAGCAGCGATTGACAGCGTAGAATGAAGG DNA 2: CCTTCATTCTACGCTGTCAATCGCTGCTTTGACTGATCAATGACCTTCGCCCAGTAGGGC,3.03 PBM z-score against 500 random probes
14,NRC3_wobSeed111_DR4_G25T_o1 (dsDNA) DNA 1: GCCGAACTAGGTCAGAACAGGACATTGAAGGATGATGCGATTGACAGCGTAGAATGAAGG DNA 2: CCTTCATTCTACGCTGTCAATCGCATCATCCTTCAATGTCCTGTTCTGACCTAGTTCGGC,3.08 PBM z-score against 500 random probes
15,NRC3_wobSeed111_DR4_G21T_o1 (dsDNA) DNA 1: GCCGAACTAGGTCAGAACAGTACAGTGAAGGATGATGCGATTGACAGCGTAGAATGAAGG DNA 2: CCTTCATTCTACGCTGTCAATCGCATCATCCTTCACTGTACTGTTCTGACCTAGTTCGGC,3.01 PBM z-score against 500 random probes
16,NRC3_wobSeed111_DR4_G27T_o1 (dsDNA) DNA 1: GCCGAACTAGGTCAGAACAGGACAGTTAAGGATGATGCGATTGACAGCGTAGAATGAAGG DNA 2: CCTTCATTCTACGCTGTCAATCGCATCATCCTTAACTGTCCTGTTCTGACCTAGTTCGGC,3.03 PBM z-score against 500 random probes

# — PMC6555819, “Comprehensive study of nuclear receptor DNA binding provides a revised framework for understanding receptor specificity”
